T1: EsCas13d, nuclease-dead (Eubacterium siraeum, UniProt B0MS50, R295A;H300A;R849A;H854A)
T1 sequence: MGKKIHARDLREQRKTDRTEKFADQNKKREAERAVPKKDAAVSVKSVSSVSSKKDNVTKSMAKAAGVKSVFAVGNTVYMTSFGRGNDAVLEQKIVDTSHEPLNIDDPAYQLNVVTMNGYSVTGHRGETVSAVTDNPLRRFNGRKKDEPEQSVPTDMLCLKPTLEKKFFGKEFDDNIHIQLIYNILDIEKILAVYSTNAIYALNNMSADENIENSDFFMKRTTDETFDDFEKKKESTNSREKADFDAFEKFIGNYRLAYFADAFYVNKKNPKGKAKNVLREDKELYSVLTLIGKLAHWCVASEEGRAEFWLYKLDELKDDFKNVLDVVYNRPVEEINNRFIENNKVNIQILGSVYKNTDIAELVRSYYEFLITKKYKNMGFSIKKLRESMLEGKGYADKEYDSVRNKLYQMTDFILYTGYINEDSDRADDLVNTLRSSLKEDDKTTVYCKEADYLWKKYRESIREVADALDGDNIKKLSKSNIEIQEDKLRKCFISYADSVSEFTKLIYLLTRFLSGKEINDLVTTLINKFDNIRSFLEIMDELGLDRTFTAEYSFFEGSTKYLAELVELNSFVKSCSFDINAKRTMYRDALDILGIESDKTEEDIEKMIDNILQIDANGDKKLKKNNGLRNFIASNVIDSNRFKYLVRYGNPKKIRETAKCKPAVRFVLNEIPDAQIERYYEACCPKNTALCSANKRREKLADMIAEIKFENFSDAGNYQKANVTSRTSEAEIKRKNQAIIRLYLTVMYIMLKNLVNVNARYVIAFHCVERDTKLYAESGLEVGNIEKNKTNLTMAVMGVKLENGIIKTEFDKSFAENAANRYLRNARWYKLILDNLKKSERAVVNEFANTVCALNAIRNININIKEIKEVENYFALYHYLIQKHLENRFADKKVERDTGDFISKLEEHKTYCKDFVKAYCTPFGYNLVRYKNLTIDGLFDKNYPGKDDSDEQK

B1: target 2 MT 5'PFS GCC 3'PFS CUC (mixed)
RNA 1: CACCCGUGCAAAAUUGCAGGGGUCUAAAACCUUCUCCAAAUUGUUUCAUCCU
RNA 2: GGGAAUGGAUCCACAUCUACGAAUUCGCCAGGAUGAAACAAUUUGGAGAAGCUCAGAUCGGAAGAGCACACGU
B2: target 2 MT 5'PFS GCC 3'PFS CUU (mixed)
RNA 1: CACCCGUGCAAAAUUGCAGGGGUCUAAAACCUUCUCCAAAUUGUUUCAUCCU
RNA 2: GGGAAUGGAUCCACAUCUACGAAUUCGCCAGGAUGAAACAAUUUGGAGAAGCUUAGAUCGGAAGAGCACACGU
B3: target 2 MT 5'PFS GCC 3'PFS CUG (mixed)
RNA 1: CACCCGUGCAAAAUUGCAGGGGUCUAAAACCUUCUCCAAAUUGUUUCAUCCU
RNA 2: GGGAAUGGAUCCACAUCUACGAAUUCGCCAGGAUGAAACAAUUUGGAGAAGCUGAGAUCGGAAGAGCACACGU
B4: target 2 MT 5'PFS AUG 3'PFS AUA (mixed)
RNA 1: CACCCGUGCAAAAUUGCAGGGGUCUAAAACCUUCUCCAAAUUGUUUCAUCCU
RNA 2: GGGAAUGGAUCCACAUCUACGAAUUCAUGAGGAUGAAACAAUUUGGAGAAGAUAAGAUCGGAAGAGCACACGU
B5: target 2 MT 5'PFS UAG 3'PFS UCU (mixed)
RNA 1: CACCCGUGCAAAAUUGCAGGGGUCUAAAACCUUCUCCAAAUUGUUUCAUCCU
RNA 2: GGGAAUGGAUCCACAUCUACGAAUUCUAGAGGAUGAAACAAUUUGGAGAAGUCUAGAUCGGAAGAGCACACGU
B6: target 2 MT 5'PFS UCG 3'PFS CCA (mixed)
RNA 1: CACCCGUGCAAAAUUGCAGGGGUCUAAAACCUUCUCCAAAUUGUUUCAUCCU
RNA 2: GGGAAUGGAUCCACAUCUACGAAUUCUCGAGGAUGAAACAAUUUGGAGAAGCCAAGAUCGGAAGAGCACACGU
B7: target 2 MT 5'PFS GGG 3'PFS CAC (mixed)
RNA 1: CACCCGUGCAAAAUUGCAGGGGUCUAAAACCUUCUCCAAAUUGUUUCAUCCU
RNA 2: GGGAAUGGAUCCACAUCUACGAAUUCGGGAGGAUGAAACAAUUUGGAGAAGCACAGAUCGGAAGAGCACACGU
B8: target 2 MT 5'PFS GGA 3'PFS CAA (mixed)
RNA 1: CACCCGUGCAAAAUUGCAGGGGUCUAAAACCUUCUCCAAAUUGUUUCAUCCU
RNA 2: GGGAAUGGAUCCACAUCUACGAAUUCGGAAGGAUGAAACAAUUUGGAGAAGCAAAGAUCGGAAGAGCACACGU
B9: target 2 MT 5'PFS GGG 3'PFS CAA (mixed)
RNA 1: CACCCGUGCAAAAUUGCAGGGGUCUAAAACCUUCUCCAAAUUGUUUCAUCCU
RNA 2: GGGAAUGGAUCCACAUCUACGAAUUCGGGAGGAUGAAACAAUUUGGAGAAGCAAAGAUCGGAAGAGCACACGU
B10: target 2 MT 5'PFS UAG 3'PFS UCA (mixed)
RNA 1: CACCCGUGCAAAAUUGCAGGGGUCUAAAACCUUCUCCAAAUUGUUUCAUCCU
RNA 2: GGGAAUGGAUCCACAUCUACGAAUUCUAGAGGAUGAAACAAUUUGGAGAAGUCAAGAUCGGAAGAGCACACGU
B11: target 2 MT 5'PFS GAU 3'PFS CUG (mixed)
RNA 1: CACCCGUGCAAAAUUGCAGGGGUCUAAAACCUUCUCCAAAUUGUUUCAUCCU
RNA 2: GGGAAUGGAUCCACAUCUACGAAUUCGAUAGGAUGAAACAAUUUGGAGAAGCUGAGAUCGGAAGAGCACACGU
B12: target 2 MT 5'PFS GGG 3'PFS CAG (mixed)
RNA 1: CACCCGUGCAAAAUUGCAGGGGUCUAAAACCUUCUCCAAAUUGUUUCAUCCU
RNA 2: GGGAAUGGAUCCACAUCUACGAAUUCGGGAGGAUGAAACAAUUUGGAGAAGCAGAGAUCGGAAGAGCACACGU
B13: target 2 MT 5'PFS AAC 3'PFS UCA (mixed)
RNA 1: CACCCGUGCAAAAUUGCAGGGGUCUAAAACCUUCUCCAAAUUGUUUCAUCCU
RNA 2: GGGAAUGGAUCCACAUCUACGAAUUCAACAGGAUGAAACAAUUUGGAGAAGUCAAGAUCGGAAGAGCACACGU
B14: target 2 MT 5'PFS GGA 3'PFS CAU (mixed)
RNA 1: CACCCGUGCAAAAUUGCAGGGGUCUAAAACCUUCUCCAAAUUGUUUCAUCCU
RNA 2: GGGAAUGGAUCCACAUCUACGAAUUCGGAAGGAUGAAACAAUUUGGAGAAGCAUAGAUCGGAAGAGCACACGU
B15: target 2 MT 5'PFS AUG 3'PFS AUU (mixed)
RNA 1: CACCCGUGCAAAAUUGCAGGGGUCUAAAACCUUCUCCAAAUUGUUUCAUCCU
RNA 2: GGGAAUGGAUCCACAUCUACGAAUUCAUGAGGAUGAAACAAUUUGGAGAAGAUUAGAUCGGAAGAGCACACGU
B16: target 2 MT 5'PFS GAU 3'PFS CUC (mixed)
RNA 1: CACCCGUGCAAAAUUGCAGGGGUCUAAAACCUUCUCCAAAUUGUUUCAUCCU
RNA 2: GGGAAUGGAUCCACAUCUACGAAUUCGAUAGGAUGAAACAAUUUGGAGAAGCUCAGAUCGGAAGAGCACACGU
B17: target 2 MT 5'PFS GAU 3'PFS CUA (mixed)
RNA 1: CACCCGUGCAAAAUUGCAGGGGUCUAAAACCUUCUCCAAAUUGUUUCAUCCU
RNA 2: GGGAAUGGAUCCACAUCUACGAAUUCGAUAGGAUGAAACAAUUUGGAGAAGCUAAGAUCGGAAGAGCACACGU
B18: target 2 MT 5'PFS GGA 3'PFS CAC (mixed)
RNA 1: CACCCGUGCAAAAUUGCAGGGGUCUAAAACCUUCUCCAAAUUGUUUCAUCCU
RNA 2: GGGAAUGGAUCCACAUCUACGAAUUCGGAAGGAUGAAACAAUUUGGAGAAGCACAGAUCGGAAGAGCACACGU
B19: target 2 MT 5'PFS GGG 3'PFS CAU (mixed)
RNA 1: CACCCGUGCAAAAUUGCAGGGGUCUAAAACCUUCUCCAAAUUGUUUCAUCCU
RNA 2: GGGAAUGGAUCCACAUCUACGAAUUCGGGAGGAUGAAACAAUUUGGAGAAGCAUAGAUCGGAAGAGCACACGU
B20: target 2 MT 5'PFS GAU 3'PFS CUU (mixed)
RNA 1: CACCCGUGCAAAAUUGCAGGGGUCUAAAACCUUCUCCAAAUUGUUUCAUCCU
RNA 2: GGGAAUGGAUCCACAUCUACGAAUUCGAUAGGAUGAAACAAUUUGGAGAAGCUUAGAUCGGAAGAGCACACGU
B21: target 2 MT 5'PFS ACA 3'PFS CAU (mixed)
RNA 1: CACCCGUGCAAAAUUGCAGGGGUCUAAAACCUUCUCCAAAUUGUUUCAUCCU
RNA 2: GGGAAUGGAUCCACAUCUACGAAUUCACAAGGAUGAAACAAUUUGGAGAAGCAUAGAUCGGAAGAGCACACGU
B22: target 2 MT 5'PFS AAC 3'PFS UCU (mixed)
RNA 1: CACCCGUGCAAAAUUGCAGGGGUCUAAAACCUUCUCCAAAUUGUUUCAUCCU
RNA 2: GGGAAUGGAUCCACAUCUACGAAUUCAACAGGAUGAAACAAUUUGGAGAAGUCUAGAUCGGAAGAGCACACGU
B23: target 2 MT 5'PFS AUG 3'PFS AUC (mixed)
RNA 1: CACCCGUGCAAAAUUGCAGGGGUCUAAAACCUUCUCCAAAUUGUUUCAUCCU
RNA 2: GGGAAUGGAUCCACAUCUACGAAUUCAUGAGGAUGAAACAAUUUGGAGAAGAUCAGAUCGGAAGAGCACACGU
B24: target 1 insG 3' of 9,insA 3' of 6 (mixed)
RNA 1: CACCCGUGCAAAAAUGCAGGGGUCUAAAACUGAGCGGAUAACCUCUCUAUGG
RNA 2: GGGAAUGGAUCCACAUCUACGAAUUCGUACCAUAGAGAGGUUAGUCCAGCUCACCGAGAUCGGAAGAGCACACGU
B25: target 1 C6G,U8C (mixed)
RNA 1: CACCCGUGCAAAAAUGCAGGGGUCUAAAACUGAGCGGAUAACCUCUCUAUGG
RNA 2: GGGAAUGGAUCCACAUCUACGAAUUCGUACCAUAGAGAGGUUACCGGCUCACCGAGAUCGGAAGAGCACACGU
B26: target 1 A14G (mixed)
RNA 1: CACCCGUGCAAAAAUGCAGGGGUCUAAAACUGAGCGGAUAACCUCUCUAUGG
RNA 2: GGGAAUGGAUCCACAUCUACGAAUUCGUACCAUAGAGGGGUUAUCCGCUCACCGAGAUCGGAAGAGCACACGU
B27: target 1 C2U,A14C (mixed)
RNA 1: CACCCGUGCAAAAAUGCAGGGGUCUAAAACUGAGCGGAUAACCUCUCUAUGG
RNA 2: GGGAAUGGAUCCACAUCUACGAAUUCGUACCAUAGAGCGGUUAUCCGCUUACCGAGAUCGGAAGAGCACACGU
B28: target 1 del3,del11 (mixed)
RNA 1: CACCCGUGCAAAAAUGCAGGGGUCUAAAACUGAGCGGAUAACCUCUCUAUGG
RNA 2: GGGAAUGGAUCCACAUCUACGAAUUCGUACCAUAGAGAGGUAUCCGCCACCGAGAUCGGAAGAGCACACGU

These binders were tested against T1, EsCas13d, nuclease-dead (assay: crRNA (strand 1, pre-loaded); Mg2+; 40 mM Tris-HCl pH 7.5, 150 mM NaCl, 6 mM MgCl2, 1 mM DTT, 0.1% Tween-20, 0.2 mg/ml BSA; 25 C; 10 min per concentration, then washed). Settings: tags: His6-TwinStrep-SUMO cleaved; N-terminal SNAP kept (SNAP-Surface 488); label: 3' end held by stalled T7 RNA polymerase.
In the case of B1, the Kd is reported as 18.3 ± 2.3 nM. B2 showed a Kd of 10.5 ± 1.9 nM. B3 gave a Kd of 12.7 ± 2.1 nM. Binder B4 has a Kd of 9 ± 1.1 nM. Binder B5 has a Kd of 38 ± 10 nM. B6 showed a Kd of 31 ± 11 nM. B7 was tested, and the Kd was 9.4 ± 1 nM. For B8, the Kd was 6.7 ± 1.2 nM. B9 showed a Kd of 4.9 ± 0.5 nM. B10 gave a Kd of 4.8 ± 0.7 nM. B11 was tested, and the Kd was 14.9 ± 2 nM. Binder B12 has a Kd of 9 ± 0.8 nM. B13 was tested, and the Kd was 9.3 ± 2.5 nM. For B14, the Kd was 9.1 ± 1.1 nM. In the case of B15, the Kd is reported as 9.9 ± 1.2 nM. For B16, the Kd was 17.8 ± 2.4 nM. B17 gave a Kd of 11.9 ± 1.7 nM. Binder B18 has a Kd of 9.4 ± 1 nM. Binder B19 has a Kd of 8 ± 0.8 nM. For B20, the Kd was 22 ± 4 nM. In the case of B21, the Kd is reported as 4.4 ± 1 nM. Work on B22 yielded a Kd of 14 ± 4 nM. In the case of B23, the Kd is reported as 9.3 ± 1.6 nM. For B24, the Kd was 13.4 ± 0.7 nM. B25 showed a Kd of 11.9 ± 0.6 nM. Binder B26 has a Kd of 13.9 ± 0.7 nM. For B27, the Kd was 80 ± 13 nM. Work on B28 yielded a Kd of 66 ± 16 nM.

Reference: paper PMC10786891, “Massively parallel profiling of RNA-targeting CRISPR-Cas13d”
